{
  "source": "patent US20130116146A1",
  "about": "(University of California, published 2013)",
  "note": "Non-standard residues stand in square brackets, D forms with d. Primed or numbered codes have the meaning given here. No end group written: not given here. Me3″ = trimethyl (trimethyl-lysine); Ahx = NCCCCCC(=O)O",
  "data": [
    {"target": "T1, GST-tagged Abl SH3 domain fusion protein (human, UniProt P00519 61-121, limits assumed)", "T1 construct": "domain: SH3 domain; also called GST-Abl SH3; Abl1 SH3 domain; not shown: GST tag", "T1 sequence (P00519 61-121 limits assumed)": "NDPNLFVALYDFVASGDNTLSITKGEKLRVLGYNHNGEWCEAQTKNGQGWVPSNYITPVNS", "assay": "peptide microarray, GST-Abl SH3 5 uM overlaid, peptide printed at 1 mg/ml, Cy3 fluorescence, triplicates", "experimental": "All peptides were synthesized by Sigma-Aldrich. The peptides were printed onto glass slides in triplicates by ArrayIt Corporation. A buffer blank and a Cy3 marker were also printed in triplicates. The peptide arrays were blocked with the blocking buffer (5% non-fat dry milk, TBS pH8.0, 0.05% Tween 20) for an hour at room temperature. Next, the peptide arrays were incubated overnight at 4° C. with purified GST-Abl SH3 in the blocking buffer at a final concentration of 5 μM. After washing three times for ten minutes with the TBST buffer (TBS pH8.0, 0.05% Tween 20), an anti-GST antibody (Santa Cruz Biotechnology) was added to a final concentration of 0.2 μg/ml in the blocking buffer for one hour at room temperature. The arrays were then washed three times for ten minutes with the TBST buffer. Finally, the arrays were incubated with the secondary antibody, Cy3-conjugated goat-anti-mouse IgG (H+L) (Jackson ImmunoResearch), for one hour at room temperature, followed by washing for three times for ten minutes with the TBST buffer. As a control, the peptide array was incubated with the anti-GST and the secondary antibodies alone.\nTo analyze the microarray data, the spots that were flagged as noisy were first removed. For the high (1 mg/ml) and low (0.5 mg/ml) printing concentrations, 724 and 767 (out of 800) spots remained for later analyses, respectively. Next, the statistical cut-off was determined for the significant fluorescence signal by modeling the background intensity distribution using a Gamma distribution (FIG. 4). The spots were binned based on the fluorescence intensity. To have a better curve fitting, the long tail of the histogram that represented strong binding peptides was removed and only the bins with intensity less than 900 and 1500 for the high and low concentrations, respectively, were kept. The model fitting and p-value calculation were conducted using R and P-value of 0.05 was used as the cutoff.", "values": [
      {"binder": "[Ahx]GPPMPPPPPP", "note": "[WASP_HUMAN 390-399 peptide GPPMPPPPPP]", "Average fluorescence intensity (high printing concentration)": 23400},
      {"binder": "[Ahx]GPVAPPPPPP", "note": "[WASL_HUMAN 369-378 peptide GPVAPPPPPP]", "Average fluorescence intensity (high printing concentration)": 45000},
      {"binder": "SPPLPPPPPP (not fully specified (N-terminus))", "note": "[RAPH1_HUMAN 677-686 peptide SPPLPPPPPP]", "Average fluorescence intensity (high printing concentration)": 17500},
      {"binder": "[Ahx]APSGPPPPPP", "note": "[WASL_HUMAN 354-363 peptide APSGPPPPPP]", "Average fluorescence intensity (high printing concentration)": 52300},
      {"binder": "[Ahx]LPPPPLPPPP", "note": "[YLPM1_HUMAN 81-90 peptide LPPPPLPPPP]", "Average fluorescence intensity (high printing concentration)": 595},
      {"binder": "LPPGPPPPVP (not fully specified (N-terminus))", "note": "[CPSF6_HUMAN 292-301 peptide LPPGPPPPVP]", "Average fluorescence intensity (high printing concentration)": 1900},
      {"binder": "[Ahx]PPPPPPPGPP (protein label as printed)", "note": "[WASP2_HUMAN 394-403 peptide PPPPPPPGPP]", "Average fluorescence intensity (high printing concentration)": 2380},
      {"binder": "PPAYPPPPVP (not fully specified (N-terminus))", "note": "[3BP2_HUMAN 201-210 peptide PPAYPPPPVP]", "Average fluorescence intensity (high printing concentration)": 29700},
      {"binder": "PPAVPPPPVP (not fully specified (N-terminus))", "note": "[RIN1_HUMAN 259-268 peptide PPAVPPPPVP]", "Average fluorescence intensity (high printing concentration)": 42600},
      {"binder": "APPTPPPPPP (not fully specified (N-terminus))", "note": "[RAPH1_HUMAN 811-820 peptide APPTPPPPPP]", "Average fluorescence intensity (high printing concentration)": 54400},
      {"binder": "CPLQPPPPPP (not fully specified (N-terminus))", "note": "[PDE4D_HUMAN peptide CPLQPPPPPP]", "Average fluorescence intensity (high printing concentration)": 840},
      {"binder": "[Ahx]VAPPPPPPPP", "note": "[WASL_HUMAN 371-380 peptide VAPPPPPPPP]", "Average fluorescence intensity (high printing concentration)": 914},
      {"binder": "[Ahx]SRGGPPPPPP", "note": "[WASL_HUMAN 283-292 peptide SRGGPPPPPP]", "Average fluorescence intensity (high printing concentration)": 744},
      {"binder": "[Ahx]GRGGPPPPPP", "note": "[WASP_HUMAN 363-372 peptide GRGGPPPPPP]", "Average fluorescence intensity (high printing concentration)": 1300},
      {"binder": "PPPPPVPPPP (not fully specified (N-terminus))", "note": "[EVL_HUMAN 185-194 peptide PPPPPVPPPP]", "Average fluorescence intensity (high printing concentration)": 4680},
      {"binder": "[Ahx]PPPPPMPPPP", "note": "[YLPM1_HUMAN 102-111 peptide PPPPPMPPPP]", "Average fluorescence intensity (high printing concentration)": 22800},
      {"binder": "APTVPPPLPP (not fully specified (N-terminus))", "note": "[3BP1_HUMAN 616-625 peptide APTVPPPLPP]", "Average fluorescence intensity (high printing concentration)": 45100},
      {"binder": "PNQVPPPPPP (not fully specified (N-terminus))", "note": "[ENAH_HUMAN 357-366 peptide PNQVPPPPPP]", "Average fluorescence intensity (high printing concentration)": 58000},
      {"binder": "PPSLPPPPPP (not fully specified (N-terminus))", "note": "[CBLB_HUMAN 818-827 peptide PPSLPPPPPP]", "Average fluorescence intensity (high printing concentration)": 35000},
      {"binder": "[Ahx]PPAGGPPPPP (protein label as printed)", "note": "[VASP2_HUMAN 165-174 peptide PPAGGPPPPP]", "Average fluorescence intensity (high printing concentration)": 26200},
      {"binder": "[Ahx]PVAPPPPPPP", "note": "[WASL_HUMAN 370-379 peptide PVAPPPPPPP]", "Average fluorescence intensity (high printing concentration)": 48800}
    ]},
    {"target": "T2, Polycomb protein chromodomain (a.a. 1-90), GST-tagged fusion protein (Drosophila melanogaster, UniProt P26017 1-90)", "T2 construct": "range 1-90; also called Polycomb-GST fusion protein; Polycomb chromodomain; not shown: GST tag", "T2 sequence (looked up)": "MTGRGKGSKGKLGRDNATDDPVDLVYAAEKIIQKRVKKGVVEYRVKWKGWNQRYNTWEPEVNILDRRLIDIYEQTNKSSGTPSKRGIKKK", "assay": "peptide microarray, GST-Polycomb chromodomain overlaid on trimethylated peptides, p<0.001 in at least two of three spots", "from_the_text": "There are a total of 46 histone peptide sequences (9 a.a. long) with a single lysine-trimethylation site which are conserved between the human and fruit fly H2, H3 and H4 proteins (Table II). These were screened for Polycomb protein chromodomain binding by peptide microarray. Each peptide sequence was screened as triplets, and the fluorescence intensity was quantified with background subtraction individually for each spot from the microarray images by ImageJ⁹ and the whole data set was fit to a mixed Gaussian distribution model (FIG. 8, Table III).\nThe peptide microarray was rinsed with TBST buffer (25 mM Tris, 125 mM NaCl, 0.05% Tween-20, pH 8) followed by blocking with 5% non-fat milk in TBST (room temperature 1 hour or 4° C. overnight). The slide was then incubated at 4° C. with Polycomb-GST fusion protein at a final concentration of […] in 5% non-fat milk/TBST for 6 hours. After washing three times for 10 minutes each with TBST, the slide was incubated with an anti-GST mouse monoclonal IgG antibody (Thermo) at a final concentration of 1 μg/mL in 5% non-fat milk/TBST and shaken gently for 1 hour at room temperature. […] The slide was shaken for 1 hr at room temperature and washed three times with TBST.", "values": [
      {"binder": "ASKDLKVK(Me3″)R (also called H2AZ, H2AV 79)", "note": "[ASKDLKVKR, H2AV_DROME lysine site 79, trimethylated]", "binding result": "binds"},
      {"binder": "IQAVLLPK(Me3″)K (also called H2A1 117)", "note": "[IQAVLLPKK, H2A_DROME lysine site 117, trimethylated]", "binding result": "binds"},
      {"binder": "DSGKAKAK(Me3″)A (also called H2AV 15)", "note": "[DSGKAKAKA, H2AV_DROME lysine site 15, trimethylated]", "binding result": "binds"},
      {"binder": "RTKQTARK(Me3″)S (also called H3.3 9)", "note": "[RTKQTARKS, H3_DROME lysine site 9, trimethylated]", "binding result": "binds"},
      {"binder": "REIRRYQK(Me3″)S (also called H3.3 56)", "note": "[REIRRYQKS, H3_DROME lysine site 56, trimethylated]", "binding result": "binds"},
      {"binder": "GRIHRHLK(Me3″)S (also called H2AZ 37)", "note": "[GRIHRHLKS, H2AV_DROME lysine site 37, trimethylated]", "binding result": "binds"},
      {"binder": "GGAKRHRK(Me3″)V (also called H4 20)", "note": "[GGAKRHRKV, H4_DROME lysine site 20, trimethylated]", "binding result": "binds"},
      {"binder": "LATKAARK(Me3″)S (also called H3K27me3; H3.3 27)", "note": "[LATKAARKS, H3_DROME lysine site 27, trimethylated]", "binding result": "binds"},
      {"binder": "PRKQLATK(Me3″)A (also called H3.3 23)", "note": "[PRKQLATKA, H3_DROME lysine site 23, trimethylated]", "binding result": "binds"},
      {"binder": "EGTKAVTK(Me3″)Y (also called H2B1A 117)", "note": "[EGTKAVTKY, H2B_DROME lysine site 117, trimethylated]", "binding result": "binds"},
      {"binder": "RIHRLLRK(Me3″)G (also called H2A1A 35)", "note": "[RIHRLLRKG, H2A_DROME lysine site 35, trimethylated]", "binding result": "binds"},
      {"binder": "MDVVYALK(Me3″)R (also called H4 91)", "note": "[MDVVYALKR, H4_DROME lysine site 91, trimethylated]", "binding result": "binds"}
    ]}
  ]
}
